Where two headings read alike, the source gives them in different places.

The values that follow come from patent US20220090139A1.

The target of test [1] is 10-amber 13-amber hoc-del soc-del T4 heads (bacteriophage T4) (UniProt P04535).
For test [2] the target is unchanged. The experiment in a line: display titration on T4 heads, SDS-PAGE (FIG. 20).
Test [3] shares this target. The experiment in a line: display on T4 heads, copies per capsid compared.
Test [4] has the same target. The experiment in a line: co-display with Cre-Hoc on the same T4 head.
Test [5] has the same target. The experiment in a line: display of RNP on T4 heads through Soc.
For test [6] the target is unchanged. The test is described as follows: in vitro display on T4 heads, pelleting, SDS-PAGE densitometry against gp23* (930 copies).
Test [7] shares this target. The experiment in a line: co-display with Cas9-gRNA RNP on the same T4 head.
Test [8] has the same target. The experiment in a line: display titration on T4 heads, SDS-PAGE (FIG. 21).
The target is the same in test [9]. The experiment in a line: Soc-TAT displayed on T4(Luci) heads used for transduction (FIG. 28).

In the case of GFP-Soc (from UniProt P03715 1-80), the Copies/capsid (copies per capsid) in [1] came to 660. In [1], “β-Gal-Soc (from UniProt P00722 1-1024; P03715 1-80) (enzyme)” displayed a Copies/capsid (copies per capsid) of 320. Further, the ratio of protein molecules to binding sites at saturation (molecules per binding site) in test [2] fell in the range of 15 to 20.

Soc-RGD (from UniProt P03715 1-80) displayed a Copies/capsid (copies per capsid) in test [1] of 710. For the same substance, the fold copy number against RGD-Hoc in test [3] came out at 8.3 fold.

In test [1], “NLS-Cas9-Soc (from UniProt Q99ZW2 1-1368) (enzyme)” yielded a Copies/capsid (copies per capsid) of 550. In turn, Cre-Soc (enzyme) came in with a Copies/capsid (copies per capsid) in test [1] of 630. In the case of “Cas9-gRNA ribonucleoprotein (RNP) complex fused to Soc (from UniProt Q99ZW2 1-1368)”, the copies per capsid (molecules per AV) in test [4] was found to be 270. In test [5], this substance displayed a copies per capsid (copies per capsid) of 280. Consider RGD-Hoc (from UniProt P18056 1-376), for which the Copies/capsid (copies per capsid) in test [1] was determined as 85.

In test [6], Cpf1-Soc (enzyme) came in with a Copies/capsid (copies per capsid) of 450. Consider Cre-Hoc (enzyme), for which, in [7], the copies per capsid (molecules per AV) stood at 50. In test [1], this substance gave a Copies/capsid (copies per capsid) of 95. Besides, the ratio of protein molecules to binding sites at saturation (molecules per binding site) in test [8] lay within 15 to 20. In turn, Soc-TAT (from UniProt P03715 1-80) came in with a copies per capsid (copies per capsid) in test [9] of 520. In test [1], the Copies/capsid (copies per capsid) stood at 750.
